The target in assay [1] is human NOP receptor in HEK293 cells (human) (UniProt P41146).
Assay [2] shares this target. The source holds these as a separate data set.
Assay [3] shares this target. This is another data set of the same source.

From publication PMC8782398 come the findings set out here.

human NOP receptor in HEK293 cells (human), sequence (P41146 whole entry): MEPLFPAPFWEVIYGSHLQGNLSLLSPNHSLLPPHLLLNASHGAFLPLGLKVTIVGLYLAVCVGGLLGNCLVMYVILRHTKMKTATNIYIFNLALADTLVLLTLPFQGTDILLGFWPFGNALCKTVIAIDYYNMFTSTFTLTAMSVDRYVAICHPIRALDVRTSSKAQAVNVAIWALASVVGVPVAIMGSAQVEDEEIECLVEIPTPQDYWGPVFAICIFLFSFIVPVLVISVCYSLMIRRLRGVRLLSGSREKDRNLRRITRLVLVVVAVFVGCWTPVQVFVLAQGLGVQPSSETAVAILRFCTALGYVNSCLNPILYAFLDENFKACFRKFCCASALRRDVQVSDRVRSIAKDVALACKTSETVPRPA

Consider “human MOP receptor in HEK293 cells (from UniProt P35372 1-400)”, for which, in assay [1], the GTPγ[35S] binding stimulated by De101, HEK (MOP/NOP) membranes: pEC50 stood at 8.67; the GTPγ[35S] binding stimulated by DeNO, HEK (MOP/NOP) membranes: pEC50 was determined as 7.63; the GTPγ[35S] binding stimulated by Dermorphin, HEK (MOP/NOP) membranes: pEC50 turned out to be 7.6; the inhibition of cAMP formation by De101, HEK (MOP/NOP) cells: Emax (% inhibition) amounted to 86%. In assay [1], the inhibition of cAMP formation by De101, HEK (MOP/NOP) cells: pEC50 was found to be 8.81; the inhibition of cAMP formation by DeNO, HEK (MOP/NOP) cells: Emax (% inhibition) amounted to 88.6%; the inhibition of cAMP formation by DeNO, HEK (MOP/NOP) cells: pEC50 turned out to be 7.55; the inhibition of cAMP formation by Dermorphin & N/OFQ (co-administered), HEK (MOP/NOP) cells: Emax (% inhibition) came to 81.3%. Further, in assay [1], the inhibition of cAMP formation by Dermorphin & UFP-101 (co-administered), HEK (MOP/NOP) cells: Emax (% inhibition) is 84.4%; the inhibition of cAMP formation by Dermorphin & UFP-101 (co-administered), HEK (MOP/NOP) cells: pEC50 stood at 8.95; the inhibition of cAMP formation by Dermorphin, HEK (MOP/NOP) cells: Emax (% inhibition) stood at 81.4%; the inhibition of cAMP formation by Dermorphin, HEK (MOP/NOP) cells: pEC50 came out at 7.59. In assay [1], this substance had an inhibition of cAMP formation by N/OFQ, HEK (MOP/NOP) cells: Emax (% inhibition) of 86.3% and an inhibition of cAMP formation by N/OFQ, HEK (MOP/NOP) cells: pEC50 of 9.17. In assay [2], this substance returned an ERK1/2 phosphorylation (fold over basal), 1 μM Dermorphin, HEK (MOP/NOP) cells, 2.5-30 min; peak at 10 min of 11.8 fold. In assay [3], this substance gave an ERK1/2 phosphorylation (fold over basal), 1 μM N/OFQ, HEK (MOP/NOP) cells, 2.5-30 min; peak at 7.5-10 min of 5 fold.
